Test results from PMC5548924, “The N-Terminal Region of Fibrillin-1 Mediates a Bipartite Interaction with LTBP1” (Structure(London, England:1993), 2017).

B1: LTBP1^TB3E3 (LTBP1 TB3-EGF3) (domain or fragment)
chain: IRPAESNEQIEETDVYQDLCWEHLSDEYVCSRPLVGKQTTYTECCCLYGEAWGMQCALCPLKDSDDYAQLCNIPVTGRRQPYGRDALVDFSEQYTPEADPYFIQDRFLNSFEELQAEECGILNGCENGRCVRVQEGYTCDCFDGYHLDTAKMTCV
B2: LTBP1^E3cbEGF15 (LTBP1 EGF3-cbEGF15) (domain or fragment)
chain: QAEECGILNGCENGRCVRVQEGYTCDCFDGYHLDTAKMTCVDVNECDELNNRMSLCKNAKCINTDGSYKCLCLPGYVPSDKPNYCT
B3: LTBP1^cbEGF14TB3 (LTBP1 cbEGF14-TB3) (domain or fragment)
chain: MDECQDPSSCIDGQCVNTEGSYNCFCTHPMVLDASEKRCIRPAESNEQIEETDVYQDLCWEHLSDEYVCSRPLVGKQTTYTECCCLYGEAWGMQCALCPLKDSDDYAQLCNIPVTGRRQPY
modifications: Ca2+-bound cbEGF14; disulfide-bonded (refolded); limits run from the start of cbEGF14 to just after the last Cys of TB3 by convention, exact construct ends not given; vector-derived N-terminal …

Target: T1, FBN1^E2cbEGF1 (fibrillin-1 EGF2-EGF3-Hyb1-cbEGF1) (human, UniProt P35555 113-287, C204 replaced with a serine)
T1 construct: fibrillin-1 (FBN1), human, domains EGF2-EGF3-Hyb1-cbEGF1; His6 tag, Ser-Ala spacer and factor Xa site (Ile-Glu-Gly-Arg) at the N-terminus, tag removed with factor Xa; 15N-labelled in some NMR titrations; Construct described in Robertson et al., 2013b; also called FBN1 EGF2-EGF3-Hyb1-cbEGF1; four-domain FBN1 fragment; not shown: His6, N-terminal, cleaved
Assay: SPR; Biacore T100; FBN1 fragments amine-coupled to a CM5 chip (1000 RU each flow cell), LTBP1 fragments as analytes; 50 mM Tris pH 7.5, 150 mM NaCl, 0.05% Tween 20, 2 mM CaCl2; 25°C; multi-cycle and single-cycle; Kd estimated from Scatchard plots
Conditions: both partners purified

T1 sequence (P35555 other isoform, or with tags, fused parts or gaps C204 replaced with a serine | C204 replaced with a serine): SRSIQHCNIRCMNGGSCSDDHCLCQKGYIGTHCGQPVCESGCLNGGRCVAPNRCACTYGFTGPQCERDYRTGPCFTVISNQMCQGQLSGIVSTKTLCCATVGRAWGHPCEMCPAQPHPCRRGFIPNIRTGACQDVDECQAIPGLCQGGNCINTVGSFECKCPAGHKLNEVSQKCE

First: B1
Second: B2
The Kd of the first is lower: 0.5 to 1 µM for the first, ~100 µM for the second.

For B3, the Kd was ~300 µM.
